From paper doi:10.1101/2025.06.18.660405 (bioRxiv, 2025)
Read-outs that look alike come from different tables or passages of the source. One block for each binder: values may come before it.

How the values were obtained:
Test in all cases: pull-down
MBP-GAR1 (full-length) = molecular target: T1, MBP-GAR1 (full-length) (human, UniProt Q9NY12 1-217)
T1 sequence (looked up): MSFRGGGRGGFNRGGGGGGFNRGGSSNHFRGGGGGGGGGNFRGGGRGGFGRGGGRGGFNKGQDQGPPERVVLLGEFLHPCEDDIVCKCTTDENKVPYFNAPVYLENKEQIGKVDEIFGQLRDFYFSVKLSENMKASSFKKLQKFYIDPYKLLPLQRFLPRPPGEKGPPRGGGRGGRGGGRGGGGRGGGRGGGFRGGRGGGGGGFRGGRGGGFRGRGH

[1] = molecular target: T2, MBP-fibrillarin (full-length) (human, UniProt P22087 1-321)
T2 sequence (looked up): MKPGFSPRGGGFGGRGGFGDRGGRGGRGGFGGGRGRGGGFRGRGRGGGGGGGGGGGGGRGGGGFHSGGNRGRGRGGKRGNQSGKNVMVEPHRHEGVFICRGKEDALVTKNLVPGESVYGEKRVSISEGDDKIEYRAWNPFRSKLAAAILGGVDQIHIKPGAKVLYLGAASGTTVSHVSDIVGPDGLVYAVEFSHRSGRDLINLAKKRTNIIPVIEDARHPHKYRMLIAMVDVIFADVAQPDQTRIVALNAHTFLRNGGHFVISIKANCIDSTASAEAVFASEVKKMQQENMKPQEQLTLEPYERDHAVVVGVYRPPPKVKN

[2] = molecular target: fibrillarin F>S (six phenylalanines of the N-terminal GF-IDR replaced with serines) (human) (UniProt P22087)
[3] = molecular target: fibrillarin F>S (six phenylalanines of the N-terminal GF-IDR replaced with serines) (human) (UniProt P22087); remark: listed apart in the source
MBP-NOP58 ΔNLS (human) = MBP-NOP58 ΔNLS (human) (UniProt Q9Y2X3)
[4] = molecular target: T3, MBP fused to the C-terminal NLS IDR of NAP57 (92aa) (human)
T3 sequence (O60832 whole entry, looked up): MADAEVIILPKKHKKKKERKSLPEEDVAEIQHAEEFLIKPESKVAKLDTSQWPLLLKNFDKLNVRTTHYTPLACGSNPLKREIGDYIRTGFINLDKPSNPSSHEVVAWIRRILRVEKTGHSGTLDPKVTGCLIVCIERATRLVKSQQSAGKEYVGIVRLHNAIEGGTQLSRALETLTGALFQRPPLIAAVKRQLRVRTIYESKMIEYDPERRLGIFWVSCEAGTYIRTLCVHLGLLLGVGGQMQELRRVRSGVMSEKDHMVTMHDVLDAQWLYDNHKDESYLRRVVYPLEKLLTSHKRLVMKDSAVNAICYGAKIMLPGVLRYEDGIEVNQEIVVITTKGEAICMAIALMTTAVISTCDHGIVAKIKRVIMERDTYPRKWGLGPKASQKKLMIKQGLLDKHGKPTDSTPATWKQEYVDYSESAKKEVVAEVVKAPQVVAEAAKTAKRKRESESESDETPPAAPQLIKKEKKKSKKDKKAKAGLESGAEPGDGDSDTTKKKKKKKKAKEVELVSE

Sequence of MBP-NOP58 ΔNLS (human) (Q9Y2X3 whole entry, stated change not applied, the tested form may be a part): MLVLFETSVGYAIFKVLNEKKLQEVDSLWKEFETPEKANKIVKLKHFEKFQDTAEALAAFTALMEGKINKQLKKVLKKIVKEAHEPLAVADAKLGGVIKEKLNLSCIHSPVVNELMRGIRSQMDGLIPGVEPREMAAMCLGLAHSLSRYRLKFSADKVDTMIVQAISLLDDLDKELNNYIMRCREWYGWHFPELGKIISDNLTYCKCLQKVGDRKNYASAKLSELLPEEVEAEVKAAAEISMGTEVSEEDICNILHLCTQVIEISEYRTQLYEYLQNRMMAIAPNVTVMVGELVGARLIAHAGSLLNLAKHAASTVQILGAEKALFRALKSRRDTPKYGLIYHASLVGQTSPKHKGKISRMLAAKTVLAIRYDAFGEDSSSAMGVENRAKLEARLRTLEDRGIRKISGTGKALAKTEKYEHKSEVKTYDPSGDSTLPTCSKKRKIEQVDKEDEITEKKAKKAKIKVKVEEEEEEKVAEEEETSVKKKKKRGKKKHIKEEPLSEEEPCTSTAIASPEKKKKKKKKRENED

binding result (MBP-GAR1 (full-length)): binds
binding result [1]: binds
reduction of binding relative to wild-type fibrillarin [2]: 35%
reduction of binding relative to wild-type fibrillarin [3]: 40%
B1: GST-GAR1 (natural protein, human, UniProt Q9NY12 1-217, looked up)
chain: MSFRGGGRGGFNRGGGGGGFNRGGSSNHFRGGGGGGGGGNFRGGGRGGFGRGGGRGGFNKGQDQGPPERVVLLGEFLHPCEDDIVCKCTTDENKVPYFNAPVYLENKEQIGKVDEIFGQLRDFYFSVKLSENMKASSFKKLQKFYIDPYKLLPLQRFLPRPPGEKGPPRGGGRGGRGGGRGGGGRGGGRGGGFRGGRGGGGGGFRGGRGGGFRGRGH

GFP-Nopp140 pulled down relative to WT MBP-NOP58 (MBP-NOP58 ΔNLS (human)): 20%
B2: GFP-Nopp140 (phosphorylated) (natural protein)
chain: MADAGIRRVVPSDLYPLVLGFLRDNQLSEVANKFAKATGATQQDANASSLLDIYSFWLKSAKVPERKLQANGPVAKKAKKKASSSDSEDSSEEEEEVQGPPAKKAAVPAKRVGLPPGKAAAKASESSSSEESSDDDDEEDQKKQPVQKGVKPQAKAAKAPPKKAKSSDSDSDSSSEDEPPKNQKPKITPVTVKAQTKAPPKPARAAPKIANGKAASSSSSSSSSSSSDDSEEEKAAATPKKTVPKKQVVAKAPVKAATTPTRKSSSSEDSSSDEEEEQKKPMKNKPGPYSSVPPPSAPPPKKSLGTQPPKKAVEKQQPVESSEDSSDESDSSSEEEKKPPTKAVVSKATTKPPPAKKAAESSSDSSDSDSSEDDEAPSKPAGTTKNSSNKPAVTTKSPAVKPAAAPKQPVGGGQKLLTRKADSSSSEEESSSSEEEKTKKMVATTKPKATAKAALSLPAKQAPQGSRDSSSDSDSSSSEEEEEKTSKSAVKKKPQKVAGGAAPSKPASAKKGKAESSNSSSSDDSSEEEEEKLKGKGSPRPQAPKANGTSALTAQNGKAAKNSEEEEEEKKKAAVVVSKSGSLKKRKQNEAAKEAETPQAKKIKLQTPNTFPKRKKGEKRASSPFRRVREEEIEVDSRVADNSFDAKRGAAGDWGERANQVLKFTKGKSFRHEKTKKKRGSYRGGSISVQVNSIKFDSE
modifications: serines of the acidic serine repeats phosphorylated (expressed in insect cells to be fully phosphorylated)

Nopp140 pulled down relative to full-length NAP57 [4]: 50%
B3: Nopp140 (phosphorylated, hexa histidine tagged) (natural protein)
chain: MADAGIRRVVPSDLYPLVLGFLRDNQLSEVANKFAKATGATQQDANASSLLDIYSFWLKSAKVPERKLQANGPVAKKAKKKASSSDSEDSSEEEEEVQGPPAKKAAVPAKRVGLPPGKAAAKASESSSSEESSDDDDEEDQKKQPVQKGVKPQAKAAKAPPKKAKSSDSDSDSSSEDEPPKNQKPKITPVTVKAQTKAPPKPARAAPKIANGKAASSSSSSSSSSSSDDSEEEKAAATPKKTVPKKQVVAKAPVKAATTPTRKSSSSEDSSSDEEEEQKKPMKNKPGPYSSVPPPSAPPPKKSLGTQPPKKAVEKQQPVESSEDSSDESDSSSEEEKKPPTKAVVSKATTKPPPAKKAAESSSDSSDSDSSEDDEAPSKPAGTTKNSSNKPAVTTKSPAVKPAAAPKQPVGGGQKLLTRKADSSSSEEESSSSEEEKTKKMVATTKPKATAKAALSLPAKQAPQGSRDSSSDSDSSSSEEEEEKTSKSAVKKKPQKVAGGAAPSKPASAKKGKAESSNSSSSDDSSEEEEEKLKGKGSPRPQAPKANGTSALTAQNGKAAKNSEEEEEEKKKAAVVVSKSGSLKKRKQNEAAKEAETPQAKKIKLQTPNTFPKRKKGEKRASSPFRRVREEEIEVDSRVADNSFDAKRGAAGDWGERANQVLKFTKGKSFRHEKTKKKRGSYRGGSISVQVNSIKFDSE
modifications: serines of the acidic serine repeats phosphorylated (expressed in insect cells to be fully phosphorylated)
